Reference: PMC2581436, “Role of Amphipathic Helix of a Herpesviral Protein in Membrane Deformation and T Cell Receptor Downregulation” (PLoS Pathogens, 2008)

Target: the molecule itself
Assay: native gel or EMSA; Blue Native PAGE (10% native gel) of whole-cell lysates of 293T cells solubilized with 2.5% Triton X-100; GFP fusions detected by anti-GFP immunoblot; markers aldolase ~160 kDa and BSA 66/132 kDa

B1: GFP-Tip^211-256 (domain or fragment)
chain: ANERNIVKDLKRLENKINVIICLVVVILAVLLLVTVLSILHIGMKS
notes: source: 293T, transiently expressing, detergent-solubilized lysate
  stoichiometry N: ~4
